Experimental findings from patent US20250320281A1 are described below.

Where only a bound is given, the exact number is not on record here.

Common to all, as to assay: cell-based or functional assay
The target in assay [1] is HIV-1 Env of isolate CAP45 (clade C pseudovirus) (HIV-1).
In assay [2] the target is HIV-1 Env of isolate ZM233 (clade C pseudovirus) (HIV-1).
For assay [3], the target named is HIV-1 Env of isolate DU156 (clade C pseudovirus) (HIV-1).
Assay [4] has as its target HIV-1 Env of isolate THRO.18 (clade B pseudovirus) (HIV-1).
The target of assay [5] is HIV-1 Env of isolate ZM249 (clade C pseudovirus) (HIV-1).
In assay [6] the target is HIV-1 JR-FL Env E168K (HIV-1 JR-FL).
Assay [7] deals with HIV-1 Env of isolate PVO.4 (clade B pseudovirus) (HIV-1).
The target of assay [8] is HIV-1 Env of isolate ZM214 (clade C pseudovirus) (HIV-1).
Assay [9] concerns the target HIV-1 92RW020 Env (HIV-1 92RW020).
Assay [10] addresses HIV-1 Env of isolate REJ04541 (clade B pseudovirus) (HIV-1).
Assay [11] deals with HIV-1 Env of isolate TR0.11 (clade B pseudovirus) (HIV-1).
Assay [12] addresses HIV-1 Env of isolate AC10 (clade B pseudovirus) (HIV-1).
In assay [13] the target is HIV-1 Env of isolate CAAN (clade B pseudovirus) (HIV-1).
The target in assay [14] is MuLV envelope protein (control pseudovirus) (MuLV).
In assay [15] the target is HIV-1 ADA Env (HIV-1 ADA).
Assay [16] concerns the target HIV-1 Env of isolate Du172 (clade C pseudovirus) (HIV-1).
Assay [17] deals with HIV-1 Env of isolate DU422 (clade C pseudovirus) (HIV-1).

B1: 1503_H05 (PG16) (TCN-119) (antibody, V domains shown)
VH: QEKLVESGGGVVQPGGSLRLSCLASGFTFHKYGMHWVRQAPGKGLEWVALISDDGMRKYHSDSMWGRVTISRDNSKNTLYLQFSSLKVEDTAMFFCAREAGGPIWHDDVKYYDFNDGYYNYHYMDVWGKGTIVTVSS
VL: QSALTQPASVSGSPGQTITISCNGTRSDVGGFDSVSWYQQSPGKAPKVMVFDVSHRPSGISNRFSGSKSGNTASLTISGLHIEDEGDYFCSSLTDRSHRIFGGGTKVTVLG
As to B1, the IC50 (neutralization, TZM-bl pseudovirus assay) in assay [1] was under 0.01 µg/mL; in [2], under 0.01 µg/mL; in [3] it was under 0.01 µg/mL; in assay [4], 4.12 µg/mL; in assay [5], under 0.01 µg/mL; in [7] it was 11 µg/mL. Moreover, the IC50 (neutralization, TZM-bl pseudovirus assay) was over 25 µg/mL in assay [8]; 0.22 µg/mL in [10]; 4.3 µg/mL in [11]; under 0.01 µg/mL in [12]; 13.5 µg/mL in assay [13]; over 25 µg/mL in assay [14]. In addition, the IC50 (neutralization, TZM-bl pseudovirus assay) is under 0.01 µg/mL in assay [16] and 0.71 µg/mL in assay [17]. Also, the IC50 (ug/ml), pseudovirus neutralization, TZM-bl assay was 0.002 µg/mL in assay [6], 0.02 µg/mL in assay [9] and 0.003 µg/mL in assay [15].

B2: 1469_M23 (PG16) (TCN-118) (antibody, V domains shown)
VH: QEKLVESGGGVVQPGGSLRLSCLASGFTFHKYGMHWVRQAPGKGLEWVALISDDGMRKYHSDSMWGRVTISRDNSKNTLYLQFSSLKVEDTAMFFCAREAGGPIWHDDVKYYDFNDGYYNYHYMDVWGKGTTVTVSS
VL: QSALTQPASVSGSPGQTITISCNGTRSDVGGFDSVSWYQQSPGRAPKVMVFDVSHRPSGISNRFSGSKSGNTASLTISGLHIEDEGDYFCSSLTDRSHRIFGGGTKLTVLG
As for B2, the IC50 (neutralization, TZM-bl pseudovirus assay) was under 0.01 µg/mL in assay [1]; under 0.01 µg/mL in [2]; under 0.01 µg/mL in assay [3]; 7.01 µg/mL in assay [4]; under 0.01 µg/mL in assay [5]; 21.2 µg/mL in [7]. In addition, the IC50 (neutralization, TZM-bl pseudovirus assay) in [8] was over 25 µg/mL; in assay [10], 0.39 µg/mL; in assay [11] it was 7.52 µg/mL; in [12], under 0.01 µg/mL; in assay [13] it was 17.7 µg/mL; in assay [14] it was over 25 µg/mL. Further, the results for the IC50 (neutralization, TZM-bl pseudovirus assay) in [16] and in assay [17] were under 0.01 µg/mL and 0.97 µg/mL, respectively. The IC50 (ug/ml), pseudovirus neutralization, TZM-bl assay is 0.005 µg/mL in assay [6], 0.05 µg/mL in [9] and 0.005 µg/mL in assay [15].

B3: 1489_I13 (PG16) (TCN-120) (antibody, V domains shown)
VH: QEQLLESGGGVVQPGGSLRLSCLASGFTFHKYGMHWVRQAPGKGLEWVALISDDGMRKYHSNSMWGRVTISRDNSKNTLYLQFSSLKVEDTAMFFCAREAGGPIWHDDVKYYDFNDGYYNYHYMDVWGKGTTVTVSS
VL: QSALTQPASVSGSPGQTITISCNGTSSDVGGFDSVSWYQQSPGKAPKVMVFDVSHRPSGISNRFSGSKSGNTASLTISGLHIEDEGDYFCSSLTDRSHRIFGGGTKVTVLG
As for B3, the IC50 (neutralization, TZM-bl pseudovirus assay) in [1] is under 0.01 µg/mL; in assay [2], under 0.01 µg/mL; in assay [3] it was under 0.01 µg/mL; in assay [4], 7.41 µg/mL; in assay [5], under 0.01 µg/mL; in [7], 20.6 µg/mL. Also, the IC50 (neutralization, TZM-bl pseudovirus assay) in assay [8] was over 25 µg/mL; in assay [10], 0.34 µg/mL; in [11], 10.9 µg/mL; in assay [12], under 0.01 µg/mL; in assay [13] it was 24.9 µg/mL; in assay [14] it was over 25 µg/mL. Also, the IC50 (neutralization, TZM-bl pseudovirus assay) in assay [16] was under 0.01 µg/mL; in assay [17], 1.87 µg/mL. For the same molecule, the IC50 (ug/ml), pseudovirus neutralization, TZM-bl assay in assay [6] is 0.005 µg/mL; in [9] it was 0.03 µg/mL; in assay [15], 0.008 µg/mL.

B4: 1456_A12 (PG16) (TCN-117) (antibody, V domains shown)
VH: HEQLVEAGGGVVQPGGSLRLSCLASGFTFHKYGMHWVRQAPGKGLEWVALISDDGMRKYHSDSMWGRVTISRDNSKNTLYLQFSSLRVEDTAMFFCAREAGGPIWHDDVKYYDFNDGYYNYHYMDVWGKGTKVTVSS
VL: QSALTQPASVSGSPGQTITISCNGTSRDVGGFDSVSWYQQSPGKAPKVMVFDVSHRPSGMSNRFSGSKSGNTASLTISGLHIEDEGDYFCSSLTDRSHRIFGGGTKLTVLG
Consider B4, for which the IC50 (neutralization, TZM-bl pseudovirus assay) in [1] was under 0.01 µg/mL; in [2], under 0.01 µg/mL; in [3], under 0.01 µg/mL; in assay [4], 2.08 µg/mL; in [5] it was under 0.01 µg/mL; in [7] it was 10.4 µg/mL. Moreover, the IC50 (neutralization, TZM-bl pseudovirus assay) was over 25 µg/mL in [8]; under 0.01 µg/mL in assay [10]; 3.05 µg/mL in [11]; under 0.01 µg/mL in assay [12]; 10.6 µg/mL in assay [13]; over 25 µg/mL in [14]. Also, the IC50 (neutralization, TZM-bl pseudovirus assay) is under 0.01 µg/mL in [16] and 0.36 µg/mL in [17]. The IC50 (ug/ml), pseudovirus neutralization, TZM-bl assay in [6] came out at 0.003 µg/mL; in assay [9], 0.05 µg/mL; in [15], 0.005 µg/mL.
